Test results: publication PMC7615752, “The histone chaperone SPT2 regulates chromatin structure and function in Metazoa” (Nature structural & molecular biology, 2023)

Biological target: T1, recombinant histone H3.1–H4 tetramer (NEB, M2509S) (UniProt P68431 1-136; P62805 1-103)
T1 construct: histone H3.1 of the recombinant H3.1–H4 tetramer; histone H4 of the recombinant H3.1–H4 tetramer; As I recall the NEB product is the human tetramer; also called H3–H4; histone H3–H4; source: bought: NEB, M2509S (recombinant); copies: 2 + 2
Experiment: pull-down; 20 pmol recombinant H3.1–H4 tetramer covalently coupled to NHS-activated magnetic beads; 5 pmol full-length SPT2 in 20 mM Tris–HCl pH 8.0, 500 mM NaCl, 0.1% Triton X-100, 0.1 mM TCEP, 1.5 h at 4 °C; washes with 700 or 800 mM NaCl
Settings: both partners purified

B1: HsSPT2, full-length (human SPT2), His6-tagged (natural protein)
chain: MDFREILMIASKGQGVNNVPKRYSLAVGPPKKDPKVKGVQSAAVQAFLKRKEEELRRKALEEKRRKEELVKKRIELKHDKKARAMAKRTKDNFHGYNGIPIEEKSKKRQATESHTSQGTDREYEMEEENEFLEYNHAESEQEYEEEQEPPKVESKPKVPLKSAPPPMNFTDLLRLAEKKQFEPVEIKVVKKSEERPMTAEELREREFLERKHRRKKLETDGKLPPTVSKKAPSQKESVGTKLSKGSGDRHPSSKGMPLPHAEKKSRPSMANEKHLALSSSKSMPGERIKAGSGNSSQPSLREGHDKPVFNGAGKPHSSTSSPSVPKTSASRTQKSAVEHKAKKSLSHPSHSRPGPMVTPHNKAKSPGVRQPGSSSSSAPGQPSTGVARPTVSSGPVPRRQNGSSSSGPERSISGSKKPTNDSNPSRRTVSGTCGPGQPASSSGGPGRPISGSVSSARPLGSSRGPGRPVSSPHELRRPVSGLGPPGRSVSGPGRSISGSIPAGRTVSNSVPGRPVSSLGPGQTVSSSGPTIKPKCTVVSETISSKNIISRSSNGQMNGMKPPLSGYRAAQGPQRLPFPTGYKRQREYEEEDDDDDEYDSEMEDFIEDEGEPQEEISKHIREIFGYDRKKYKDESDYALRYMESSWKEQQKEEAKSLRLGMQEDLEEMRREEEEMQRRRAKKLKRR
notes: human SPT2 (gene SPTY2D1), full length; source: E. coli Rosetta 2(DE3) pLysS BL21, purified (NiNTA, Flag M2 beads, Ulp1 cleavage); not shown: 2xFlag-SUMO, N-terminal, cleaved; His6, C-terminal, kept
binding result: binds
